Assay results published in the supplement of paper PMC9170038.

System: MS2 coat protein
Assay: apparent KD of MS2 coat protein; designed switch direction (-1 OFF switch, 1 ON switch): -1; higher = weaker reporter binding
In short: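 Three titration conditions were used: no input, 200 uM small-molecule ligand, and an oligonucleotide input. In each, SNAP-549-labelled MS2 coat protein was raised from 0.7 or 1.5 nM, doubling, to 3 µM over designed RNA switches transcribed on Illumina chips by stalled E. coli RNA polymerase. Curve fits of normalised cluster fluorescence gave values whose per-design median over clusters is the apparent KD.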

[1] = Eterna round: R95, input ligand: microRNA oligo, concentration not stated
[2] = input ligand: microRNA oligo, concentration not stated
[3] = Eterna round: R95, input ligand: FMN 200 uM
[4] = Eterna round: R95, input ligand: none

| Sequence | apparent KD of MS2 coat protein [1] | apparent KD of MS2 coat protein (input ligand: FMN 200 uM) | apparent KD of MS2 coat protein [2] | apparent KD of MS2 coat protein (input ligand: none) | apparent KD of MS2 coat protein [3] | apparent KD of MS2 coat protein [4] |
| --- | --- | --- | --- | --- | --- | --- |
| CUCGUGUAAGGAUAUGCGAGCCGCGGAAAUACACCGCGGAGGUAGAAGGUACAUGAGGAUCACCCAUGUAAAAC [Edisora] (puzzle: Exclusion 4) | 0.0266 µM |  |  |  |  |  |
| CUCUAACACGCAGGAUAUGCAUCACCAUAAUUAGCAGAAGGGCGAAACACAUGAGGAUCACCCAUGUUGAGGAUCACCCAUGAC [Default title] (Eterna round: R96, puzzle: Exclusion NG 1) |  | 0.0221 µM | 0.0199 µM | 0.0236 µM |  |  |
| CUCUAGUCAGGAUAUUAGUUGCCGCCUGGACACAAGCGGCAUGAGAAGGGACUUGAGGAUCACCCAAGUAAAAG [Tibela] (Eterna round: R97, puzzle: Exclusion 4) |  | 2.85 µM |  | 0.393 µM |  |  |
| CUCUAGUCAGGAUAUUAGUUGUCGCCCAGCAACGGGCGACAUGAGAAGGGACUUGAGGAUCACCCAAGUAAACG [Leorteti] (Eterna round: R97, puzzle: Exclusion 4) |  | 0.279 µM |  | 0.478 µM |  |  |
| CUCUCGGUAGGAUAUCCUCCGCCGAACAUGAGGAUCACCCAUGUCACUGCCACUACGCUAGGAGAAGGGCCAGACG [Eternabot (L2) Solution 55] (Eterna round: R97, puzzle: Exclusion 5) |  | 0.0816 µM |  | 0.0858 µM |  |  |
| CUCUGCACGCUGCGGUCCUACAUGAGGAUCACCCAUGUGGUCUGGUGGCGUGGGUCACCGGACUUGGCUCGUCUUGC [salish99_S_TOV1_R5_051] (Eterna round: R97, puzzle: Sensor, turn-off variant 1) |  | 0.021 µM |  | 0.0227 µM |  |  |
| CUCUUAUCUUAGGAUAUUUUACCGCAAGUGGUGGGAGAAGGGAGCACAUGAGGAUCACCCAUGUUAGCUGGGCU [Eternabot (L2) Solution 19] (Eterna round: R97, puzzle: Exclusion 6) |  | 0.0221 µM |  | 0.0205 µM |  |  |
| CUCUUGGCAGGAUAUGCAAUUUUAGACAUGAGGAUCACCCAUGUGAUCAUUCCAUAUUAUGCAGAAGGGCCUAAAC [JR_E5_Sub049] (Eterna round: R96, puzzle: Exclusion 5) |  | 0.238 µM | 0.0274 µM | 0.0392 µM |  |  |
| CUCUUGGCAGGAUAUGCAAUUUUAGACAUGAGGAUCACCCAUGUGAUCAUUCCAUAUUAUGCAGAAGGGCCUAAAC [JR_E5_Sub049] (puzzle: Exclusion 5) | 0.0543 µM |  |  |  |  |  |
| CUCUUGUUAGGAUAUCAAACCAGCGGCGGAACCGCUGGAAGUGAGAAGGGACAUGAGGAUCACCCAUGUAAGAA [Usrebiis] (puzzle: Exclusion 4) | 0.0393 µM |  |  |  | 0.161 µM | 0.0648 µM |
| CUCUUGUUAGGAUAUCAAACCGGCGGCGGAGCCACCGGAAGUGAGAAGGGACAUGAGGAUCACCCAUGUAAGAA [Islaariste] (puzzle: Exclusion 4) | 0.0609 µM |  |  |  | 0.22 µM | 0.0673 µM |
| CUGAACAUAGGAUAUACAUGAGGAUCACCCAUGUAUAUAAAAGGGUGUUCCAACUAAAGUAGAAGGAUGUAUAG [ExFusion 4 - Jieux - Exclusion 3] (Eterna round: R97, puzzle: Exclusion 3) |  | 0.0451 µM |  | 0.0578 µM |  |  |
| CUGAGCAGACGGAAAUCCAACAUGAGGAUCACCCAUGUCUCAAAAGCUUUUUGCUCGUCUUAUCCUCCUCUGUUCUC [Tiardia] (puzzle: Sensor v3, turn-off variant 1) | 0.138 µM |  |  |  | 0.0241 µM | 0.0211 µM |
| CUGAGCAGACGGAGAUCCAACAUGAGGAUCACCCAUGUCUCAAAAGCUUUUUGCUCGUCUUAUCCUCCUCUGCUCAC [Geesbeleri] (puzzle: Sensor v3, turn-off variant 1) | 0.0218 µM |  |  |  | 0.0112 µM | 0.0125 µM |
| CUGAGCAGACGGAGAUCCAACAUGAGGAUCACCCAUGUCUCAAAAGCUUUUUGCUUAAACGUCUUAUCUCUGUUCAC [Esquitian 5] (Eterna round: R97, puzzle: Sensor, turn-off variant 1) |  | 0.0357 µM |  | 0.0338 µM |  |  |
| CUGAGCAGACGGAGAUCCAACAUGAGGAUCACCCAUGUCUCAAAAGCUUUUUGCUUGUCUUACUCUCCUCUGUUCUC [Atenve] (puzzle: Sensor v3, turn-off variant 1) | 0.103 µM |  |  |  | 0.0139 µM | 0.0113 µM |
| CUGAGCAGACGGAGAUCCAACAUGAGGAUCACCCAUGUCUCAAAAGCUUUUUGCUUGUCUUAUCCUCCUCUGUUCUC [Xegean] (puzzle: Sensor v3, turn-off variant 1) | 0.248 µM |  |  |  | 0.0146 µM | 0.0127 µM |
| CUGAGCAGACGGAGAUCCAACAUGAGGAUCACCCAUGUCUCACAAGCUUUUUGCUUGUCUUAUUCUCCUCUGUUCUC [Leveasodi] (puzzle: Sensor v3, turn-off variant 1) | 0.0166 µM |  |  |  | 0.0128 µM | 0.0121 µM |
| CUGAGCUGAGGAUAUACAUGAGGAUCACCCAUGUAAAGCAGCUUGCGUACAAGCAGAUGUAGAAGGCAGUUCGG [Mod of JL 17 - Jieux - Exclusion 3] (Eterna round: R97, puzzle: Exclusion 3) |  | 0.0241 µM |  | 0.0147 µM |  |  |
| CUGAGCUGAGGAUAUACAUGAGGAUCACCCAUGUGUUAGAGCUUGCGUACAGGCAGAUGUAGAAGGCAGUUCGG [JL-ex3-3.33 Brourd mod] (puzzle: Exclusion 3) | 0.0145 µM |  |  |  |  |  |
| CUGAGGUAAGGAUAUAGGAGAGAAGAUAAGGUAUGAGAGUUCUAGAAGGUACAUGAGGAUCACCCAUGUUAGGG [JR_Exclu4_Sub087] (puzzle: Exclusion 4) | 0.252 µM |  |  |  |  |  |
| CUGAGGUAGCGGUCCUAUAACAUGAGGAUCACCCAUGUACCUUGCUUCGAGCUUUUAGCUCGUCUUAUGAUUCUCGG [Mat - Sensor v3 - turn-off var 1 - JL Mod - D37] (puzzle: Sensor v3, turn-off variant 1) | 0.502 µM |  |  |  | 0.443 µM | 0.56 µM |
| CUGAGGUAGCGGUCCUAUGACAUGAGGAUCACCCAUGUACCUCGCUACGAGCUUUUUGCUCGUCUUAUAAUUCUCGG [JL Atriat mod 2] (puzzle: Sensor v3, turn-off variant 1) | 0.141 µM |  |  |  | 0.573 µM | 0.643 µM |
| CUGAGGUAGCGGUCCUAUGACAUGAGGAUCACCCAUGUACCUUGCUUCGAGCAUUUUGCUCGUCUUAUGAUUCUCGG [Mat - Sensor v3 - turn-off var 1 - JL Mod - D35] (puzzle: Sensor v3, turn-off variant 1) | 0.481 µM |  |  |  | 0.45 µM | 0.507 µM |
| CUGAGGUAGCGGUCCUAUGACAUGAGGAUCACCCAUGUACCUUGCUUCGAGCUAUUUGCUCGUCUUAUGAUUCUCGG [Mat - Sensor v3 - turn-off var 1 - JL Mod - D34] (puzzle: Sensor v3, turn-off variant 1) | 0.483 µM |  |  |  | 0.538 µM | 0.493 µM |
| CUGAGGUAGCGGUCCUAUGACAUGAGGAUCACCCAUGUACCUUGCUUCGAGCUUUUUGCUCGUCUUAUGAUUCUCGG [JL Atriat mod 5] (puzzle: Sensor v3, turn-off variant 1) | 0.456 µM |  |  |  | 0.486 µM | 0.576 µM |
| CUGAGGUAGCGGUCCUAUGACAUGAGGAUCACCCAUGUACCUUGCUUUGAGCUUAUUGCUCGUCUUAUGAUUCUCGG [Mat - Sensor v3 - turn-off var 1 - JL Mod - D41] (puzzle: Sensor v3, turn-off variant 1) | 0.299 µM |  |  |  | 0.399 µM | 0.46 µM |
| CUGAGGUAGCGGUCCUAUGACAUGAGGAUCACCCAUGUACCUUGCUUUGAGCUUUAUGCUCGUCUUAUGAUUCUCGG [Mat - Sensor v3 - turn-off var 1 - JL Mod - D42] (puzzle: Sensor v3, turn-off variant 1) | 0.537 µM |  |  |  | 0.585 µM | 0.546 µM |
| CUGAGUAUAGGAUAUACAUGAGGAUCACCCAUGUAGAAACAAGGGUCUUACAACUAAAGUAGAAGGAUAUUUGG [ExFusion 7 - Jieux - Exclusion 3] (Eterna round: R97, puzzle: Exclusion 3) |  | 0.112 µM |  | 0.0482 µM |  |  |
| CUGAGUCAAGGAUAUACAUGAGGAUCACCCAUGUAAAGUAGCUUGCGUACAGGCAGAUGUAGAAGGUGAUUCGG [Mod of JL 9 - Jieux - Exclusion 3] (Eterna round: R97, puzzle: Exclusion 3) |  | 0.1 µM |  | 0.0907 µM |  |  |
